Laboratory results: patent US20170081400A1 (CEPHALON, published 2017)
Substitutions are numbered along the chain they refer to.

T1: single-site biotinylated human TL1A (human, UniProt O95150 72-251, single-site biotinylated (site not stated))
T1 construct: construct used for biotinylation not described
T1 sequence: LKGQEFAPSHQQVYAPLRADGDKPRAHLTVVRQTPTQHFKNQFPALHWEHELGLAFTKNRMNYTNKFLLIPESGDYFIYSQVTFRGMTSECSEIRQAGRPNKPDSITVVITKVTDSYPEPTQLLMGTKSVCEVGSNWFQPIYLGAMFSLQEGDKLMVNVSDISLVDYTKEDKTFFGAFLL

T2: human TL1A extracellular domain with N-terminal HIS and FLAG tag (human, UniProt O95150 72-251)
T2 construct: whole entry named. ~70 kDa fraction purified by gel filtration
T2 sequence: T1 sequence

T3: human TL1A extracellular domain with N-terminal HIS and FLAG tag (human, UniProt O95150 72-251)
T3 construct: the whole entry is named; also called TNFSF15
T3 sequence: T1 sequence

T4: human TL1A extracellular domain with N-terminal HIS and FLAG tag (human) (UniProt O95150)
T4 sequence: T1 sequence

B1: 320-331 (antibody, human IgG1, name in Kabat numbering, V domains shown)
VH: QVQLVQSGAEVKKPGASVKVSCKASGYTFTSYDINWVRQAPGQGLEWMGWLNPNSGNTGYAQKFQGRVTMTADRSTSTAYMELSSLRSEDTAVYYCAREVPETAAFEYWGQGTLVTVSS
VL: QSVLTQPPSVSGAPGQRVTISCTSSSSDIGAGLGVHWYQQLPGTAPKLLIEGYYNRPSGVPDRFSGSKSGTSASLTITGLLPEDEGDYYCQSWDGTLSALFGGGTKLTVLG
notes: human IgG1, lambda
B2: 320-547 (antibody, human IgG1, name in Kabat numbering, V domains shown)
VH: B1 VH with N57Y
VL: B1 VL with W93Y
notes: human IgG1, lambda
B3: 320-184 (antibody, human IgG1, name in Kabat numbering, V domains shown)
VH: B1 VH
VL: B1 VL with L81A, W93Y
notes: human IgG1, lambda
B4: 320-186 (antibody, human IgG1, name in Kabat numbering, V domains shown)
VH: B1 VH
VL: B1 VL with L81Q, W93Y
notes: human IgG1, lambda
B5: 320-190 (antibody, human IgG1, name in Kabat numbering, V domains shown)
VH: B1 VH
VL: B1 VL with L81W, W93Y
notes: human IgG1, lambda
B6: 320-187 (antibody, human IgG1, name in Kabat numbering, V domains shown)
VH: B1 VH
VL: B1 VL with L81D, W93Y
notes: human IgG1, lambda
B7: 320-188 (antibody, human IgG1, name in Kabat numbering, V domains shown)
VH: B1 VH
VL: B1 VL with L81H, W93Y
notes: human IgG1, lambda
B8: 320-189 (antibody, human IgG1, name in Kabat numbering, V domains shown)
VH: B1 VH
VL: B1 VL with L81K, W93Y
notes: human IgG1, lambda
B9: 320-191 (antibody, human IgG1, name in Kabat numbering, V domains shown)
VH: B1 VH
VL: B1 VL with L81Y, W93Y
notes: human IgG1, lambda
B10: 320-185 (antibody, human IgG1, name in Kabat numbering, V domains shown)
VH: B1 VH
VL: B1 VL with L81S, W93Y
notes: human IgG1, lambda
B11: 320-589 (antibody, human IgG1, name in Kabat numbering, V domains shown)
VH: B1 VH with N57Y
VL: B1 VL with L33S, W93Y
notes: full-length human IgG1, lambda
B12: 320-592 (antibody, human IgG1, name in Kabat numbering, V domains shown)
VH: B1 VH with N57Y
VL: B1 VL with G32A
notes: as for B11
B13: 320-593 (antibody, human IgG1, name in Kabat numbering, V domains shown)
VH: B1 VH with N57Y
VL: B1 VL with L33S
notes: as for B11
B14: 320-591 (antibody, human IgG1, V domains shown)
VH: B1 VH with N57Y
VL: B1 VL with H36L, W93Y
notes: as for B11
B15: 320-594 (antibody, human IgG1, name in Kabat numbering, V domains shown)
VH: B1 VH with N57Y
VL: B1 VL with L33Q
notes: as for B11
B16: 320-590 (antibody, human IgG1, name in Kabat numbering, V domains shown)
VH: B1 VH with N57Y
VL: B1 VL with L33Q, W93Y
notes: as for B11
B17: 320-595 (antibody, human IgG1, name in Kabat numbering, V domains shown)
VH: B1 VH with N57Y
VL: B1 VL with H36L
notes: as for B11
B18: 320-585 (antibody, human IgG1, name in Kabat numbering, V domains shown)
VH: B1 VH
VL: B1 VL with L33Q
notes: human IgG1, lambda
B19: 320-586 (antibody, human IgG1, name in Kabat numbering, V domains shown)
VH: B1 VH
VL: B1 VL with H36L
notes: human IgG1, lambda
B20: 320-583 (antibody, human IgG1, name in Kabat numbering, V domains shown)
VH: B1 VH
VL: B1 VL with G32A
notes: human IgG1, lambda
B21: 320-584 (antibody, human IgG1, name in Kabat numbering, V domains shown)
VH: B1 VH
VL: B1 VL with L33S
notes: human IgG1, lambda

molecular target: T1, single-site biotinylated human TL1A; assay: competition ELISA: antibody dilutions pre-incubated with biotinylated human TL1A (1 µg/ml), added to plate-coated DR3/Fc; bound TL1A detected with streptavidin-HRP; blocked partner DR3/Fc [top panel]
Experimental: (§1) 1.8. […] DR3/Fc Chimera (R&D Systems) or DcR3/Fc Chimera (R&D Systems) was coated onto a 96-well plate (Maxisorp, Nunc) at a concentration of 2 μg/ml.

Row | IC50 (read off the curve) [µg/mL] | Molecule
1 | ~0.08 | B1
2 | ~0.07 | B2

molecular target: membrane TL1A on human PBMCs (human) (UniProt O95150); assay: flow cytometry on human PBMCs, antibody staining against CD14 [left plot]

Row | number in the upper left quadrant (antibody-positive, CD14-negative cells) | number in the upper right quadrant (antibody-positive, CD14-positive cells) | Molecule
3 | 0.51 | 0.07 | Isotype control (antibody)

molecular target: T2, human TL1A extracellular domain with …; assay: SPR run 1; purified antibody on Protein A; TL1A 10 ug/mL; timepoint 59
Description: (§2) 1.5. Antibody expression and antigen binding as determined by SPR. Using a CM5 sensor chip (GE Healthcare) Protein A (Pierce) was coupled to the chip surface using an amine coupling kit (GE Healthcare). Protein A was coupled on flow cell 1 and 2 (or alternatively 3 and 4) using a BIACORE® T200. […] The amount of supernatant or purified protein (as well as the concentration) injected during the capture stage varied between runs and is specified in the header of the Tables 3-11. At the end of injection of the supernatant or purified antibody the change in response units was measured. This value was reported as Capture Level in Tables 3-11. […] The response units were measured prior to the end of the dissociation phase. […] The sensorgrams were double referenced (flow cell 2 is subtracted from flow cell 1 and a buffer blank). As there were a large number of antibody variants to screen, these were screened across different runs (Tables 3-11). […] A summary of the conditions used in each run is below:
(§3) 2.1. […] In some experiment the antibodies were purified using Protein A chromatography (See 1.4) and purified antibodies were used in BIACORE® (GE Healthcare) experiments.

Row | TL1A Binding Level (Early) [RU] | Molecule
4 | 141 | B3
5 | 136 | B4
6 | 136 | B5
7 | 134 | B6
8 | 136 | B7
9 | 130 | B8
10 | 140 | B9
11 | 137 | B10

molecular target: T3, human TL1A extracellular domain with …; assay: SPR Run 8, antibody on Protein A, TL1A 5 ug/mL, timepoint 44
Description: as §2, §3

Row | TL1A Binding Level (Early) [RU] | Molecule
12 | 120 | B11
13 | 128 | B12
14 | 126 | B13
15 | 132 | B14
16 | 134 | B15
17 | 130 | B16
18 | 129 | B17

molecular target: T1, single-site biotinylated human TL1A; assay: competition ELISA: antibody dilutions pre-incubated with biotinylated human TL1A (1 µg/ml), added to plate-coated DcR3/Fc; bound TL1A detected with streptavidin-HRP; blocked partner DcR3/Fc [bottom panel]
Experimental: as §1

Row | IC50 (read off the curve) [µg/mL] | Molecule
19 | ~2 | B18
20 | ~2 | B19
21 | ~1 | B20
22 | ~2 | B21

molecular target: T3, human TL1A extracellular domain with …; assay: SPR Run 8, antibody on Protein A, TL1A 5 ug/mL, timepoint 590
Description: as §2, §3

Row | TL1A Binding Level (Late) [RU] | Molecule
23 | 109 | B11
24 | 129 | B12
25 | 124 | B13
26 | 124 | B14
27 | 132 | B15
28 | 121 | B16
29 | 128 | B17

molecular target: T2, human TL1A extracellular domain with …; assay: SPR run 1; purified antibody on Protein A; TL1A 10 ug/mL; timepoint 590
Description: as §2, §3

Row | TL1A Binding Level (Late) [RU] | Molecule
30 | 118 | B3
31 | 113 | B4
32 | 113 | B5
33 | 112 | B6
34 | 113 | B7
35 | 107 | B8
36 | 117 | B9
37 | 114 | B10

molecular target: T4, human TL1A extracellular domain with N-terminal HIS and FLAG tag (human); assay: cell-based or functional assay

Row | Antibody IC50, TL1A induced caspase potency assay in TF-1 cells [µg/mL] | Fold improvement over 320-179, TL1A induced caspase potency assay in TF-1 cells [fold] | Molecule
38 | 0.01 | 3 | B3
39 | 0.03 | 1 | B4
40 | 0.02 | 2 | B5
41 | 0.02 | 2 | B6
42 | 0.01 | 4 | B7
43 | 0.11 | 0 | B8
44 | 0.02 | 2 | B9
45 | 0.02 | 2 | B10

molecular target: T3, human TL1A extracellular domain with …; assay: cell-based or functional assay

Row | Antibody IC50, TL1A induced caspase potency assay in TF-1 cells [µg/mL] | Fold improvement over 320-179, TL1A induced caspase potency assay in TF-1 cells [fold] | Molecule
46 | 0.02 | 1 | B11
47 | 0.003 | 7 | B12
48 | 0.004 | 15 | B13
49 | 0.002 | 10 | B14
50 | 0.005 | 12 | B15
51 | 0.006 | 3 | B16
52 | 0.003 | 20 | B17
